{"source": "patent US20250325467A1", "about": "“COMPOSITIONS FOR PREVENTING OR TREATING SKIN AGING” (ESTETRA SRL, priority 2021, published 2025)", "test_system": "Normal Human Dermal Fibroblasts (NHDFs)", "experiment": "Colonization of a standard acellular area (IBIDI chamber gap closure) by fibroblasts", "type": "cell-based", "details": "10 ng/ml", "method": "The study consists in an in vitro assay aiming to evaluate the properties of E4 and E2 at 4 concentrations each on keratinocytes and fibroblasts. In this assay, the measurement of the colonization of a standard acellular surface generated from a confluent monolayer of cells using a dedicated culture device (IBIDI chamber) is performed. The assay is performed in absence and in presence of a proliferation inhibitor to focus on cell proliferation and migration or on migration only, respectively.\nNormal Human forskin-derived Dermal Fibroblats (NHDFs, ATCC) cells were grown in phenol-free Dulbecco's Modified Eagle Medium (DMEM, ThermoFisher Scientific) supplemented with 10% of Foetal Bovine Serum (FBS, ThermoFisher Scientific), L-glutamine and antibiotics. The cells were maintained in a humidified incubator at 37° C. with a 5% CO2 atmosphere.\nCells were plated in 2-well silicone inserts with a defined cell free gap (IBIDI chambers; IBIDI GmbH, 80209) that was previously inserted on 12-well culture plates. This culture device allows to create a standardized 500 μm±100 μm cell free gap for monitoring cell colonization. 24 h after seeding, when the culture reached high confluency, cells in the insert were treated, or not, with mitomycin C (MMC) at 10 μg/ml during 2 h. After these 2 hours, the insert was removed, and cells were treated with E2 or E4 in presence or not of MMC for additional 2 h. Then, if appropriate, the culture medium was removed and cells were treated with E2 or E4 for 22 h, in absence of MMC.\nFor the assay, keratinocytes were plated in Epilife medium without HKGS and all the treatments were performed in this medium. Fibroblasts were plated in DMEM medium containing only 2,5% of FBS and the treatments were performed in absence of FBS.\nE2 and E4 were applied at 4 concentrations each (10^−7M, 10^−8M, 10^−9M, 10^−10M). In parallel, cells were treated with a positive control (HKGS 1% for human keratinocytes and PDGF-BB at 10 ng/ml for human fibroblasts).\nTo monitor cell colonization and to evaluate the gap closure rate, pictures of the gap were taken after different times: at time 0 h, corresponding to the beginning of the treatment with E2 or E4 and to the removal of the culture insert, at time 6 h and at time 24 h (corresponding to the end of the treatments with E2 or E4). Pictures were taken with a microscope Zeiss (Axiover 25-10× objective) and with a camera Invenio2EIII (DeltaPix—Lux-Optic). The colonized areas were quantified from the pictures by the use of the WimAsis platform—WimScratch software. For each insert, 3 pictures were taken at each time. As each condition was performed in triplicates, it means a total of 9 pictures per condition and per time point of acquisition"}
{"molecule": "PDGF-BB: positive control at 10 ng/ml for human fibroblasts (protein, UniProt P01127 82-190, looked up) Platelet-derived growth …: SLGSLTIAEPAMIAECKTRTEVFEISRRLIDRTNANFLVWPPCVEVQRCSGCCNNRNVQCRPTQVQLRPVQVRKIEIVRKKPIFKKATVTLEDHLACKCETVAAARPVT", "values": [{"measurement": "colonized area, NHDF, positive reference", "setting": "in absence of MMC", "value": "significantly increases the colonized area"}, {"measurement": "colonized area, NHDF, positive reference", "setting": "in presence of MMC", "value": "significantly increases the colonized area"}]}
